Data on three molecules can be found in patent US20240197828A1 (FEINSTEIN INSTITUTES FOR MEDICAL RESEARCH, published 2024).

To fix the notation:
B1: recombinant murine (rm) CIRP (ligand, mouse, UniProt P60824 1-172, looked up)
chain: MASDEGKLFVGGLSFDTNEQALEQVFSKYGQISEVVVVKDRETQRSRGFGFVTFENIDDAKDAMMAMNGKSVDGRQIRVDQAGKSSDNRSRGYRGGSAGGRGFFRGGRSRGRGFSRGGGDRGYGGGRFESRSGGYGGSRDYYASRSQGGSYGYRSSGGSYRDSYDSYATHNE
notes: For SPR it was bought (Cat # CSB-EP613483He0); For the cell assays it was made in the lab and, in the uptake experiments, labelled with FITC; also called eCIRP

In experiment [1] the target is T1, recombinant murine MFG-E8 (rmMFG-E8) (mouse, UniProt P21956 23-463).
T1 construct: For SPR it was bought from R&D Systems (Cat #2767-MF-050); For the cell assays it was made in the lab; also called milk fat globule-epidermal growth factor-factor VIII; AlexaFluor568-rmMFG-E8
T1 sequence: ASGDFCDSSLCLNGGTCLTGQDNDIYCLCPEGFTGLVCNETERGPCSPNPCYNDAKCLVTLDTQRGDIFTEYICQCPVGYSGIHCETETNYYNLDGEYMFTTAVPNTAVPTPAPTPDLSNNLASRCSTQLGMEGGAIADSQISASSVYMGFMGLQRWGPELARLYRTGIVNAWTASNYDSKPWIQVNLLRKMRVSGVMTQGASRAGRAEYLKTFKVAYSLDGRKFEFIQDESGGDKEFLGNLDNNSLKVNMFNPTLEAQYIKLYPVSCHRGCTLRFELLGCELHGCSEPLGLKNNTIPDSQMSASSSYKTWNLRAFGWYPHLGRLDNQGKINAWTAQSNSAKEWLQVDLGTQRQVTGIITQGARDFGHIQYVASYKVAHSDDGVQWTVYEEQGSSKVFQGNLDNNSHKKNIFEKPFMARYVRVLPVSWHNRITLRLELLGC
Put plainly: SPR (Biacore/OpenSPR); rmCIRP immobilised, rmMFG-E8 as analyte at 15.7-250 nM; 1:1 fit; mouse proteins. On the procedure:
(§1) To examine the direct interaction between rmCIRP and rmMFG-E8, surface plasmon resonance (SPR), OpenSPR (Nicoya), was performed between rmCIRP and rmMFG-E8. rmCIRP was immobilized on carboxyl sensor and rmMFG-E8 was injected as an analyte in concentrations of 15.7 nM to 250 nM. Binding reactions were performed in DPBS, with Calcium and Magnesium, 0.05% P20, 1% BSA, and pH 7.4. In parallel experiments, binding of MOP3 to rmCIRP (analyte) was performed with concentrations of 0.5 μm to 2 μM, and binding of MOP3 to αᵥβ₃-integrin (analyte) was performed in concentrations of 31.25 nM to 125 nM. All binding reactions were performed in PBS 0.05% P20, pH7.4. Briefly, the carboxyl sensor was first cleaned by injection 10 mM HCL 150 μl, followed by injection of 150 μl of the mixture of 1 aliquot of N-ethyl-N′-[3-[…]]-carbodiimide (EDC) and 1 aliquot of N-hydroxysuccinimide (NHS) to activate the sensor surface. An aliquot of 200 μl of 50 μg/ml of the ligand diluted in 10 mM sodium acetate (pH 5.5) was injected at 20 μl/minutes into flow cell-channel-2 of the sensor for immobilization. Next, 150 μl of 1 M […] (pH 8.5) was injected to deactivate the remaining active sites on channel 1&2. […] To evaluate binding, the analyte was injected into flow cell-1 and flow cell-2 and increasing concentrations and real-time interaction data were analyzed by TraceDrawer (Nicoya). […]
A general note: SPR reads the build-up and loss of mass on a sensor chip optically.

Experiment [2] addresses T2, recombinant human MFG-E8 (rhMFG-E8) (human, UniProt Q08431 24-387, limits assumed).
T2 sequence (looked up): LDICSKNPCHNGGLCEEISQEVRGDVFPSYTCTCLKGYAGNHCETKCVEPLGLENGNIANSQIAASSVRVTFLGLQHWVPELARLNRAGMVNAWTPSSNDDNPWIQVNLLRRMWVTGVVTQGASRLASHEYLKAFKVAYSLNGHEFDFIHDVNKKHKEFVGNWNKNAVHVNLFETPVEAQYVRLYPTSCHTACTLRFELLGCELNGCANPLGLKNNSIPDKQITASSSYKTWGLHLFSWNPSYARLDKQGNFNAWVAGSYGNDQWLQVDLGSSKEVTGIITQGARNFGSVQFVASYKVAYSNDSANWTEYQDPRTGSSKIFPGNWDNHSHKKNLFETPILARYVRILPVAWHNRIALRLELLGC
The experiment in a line: SPR (Biacore); human proteins.

The target in experiment [3] is T3, αvβ3-integrin (recombinant, R&D Systems Cat #7889-AV-050).
T3 construct: Used as the analyte in SPR over immobilised MOP3; also called αvβ3-integrin receptor; auß3-integrin
T3 sequence (P43406 31-988, chain 1 of 2): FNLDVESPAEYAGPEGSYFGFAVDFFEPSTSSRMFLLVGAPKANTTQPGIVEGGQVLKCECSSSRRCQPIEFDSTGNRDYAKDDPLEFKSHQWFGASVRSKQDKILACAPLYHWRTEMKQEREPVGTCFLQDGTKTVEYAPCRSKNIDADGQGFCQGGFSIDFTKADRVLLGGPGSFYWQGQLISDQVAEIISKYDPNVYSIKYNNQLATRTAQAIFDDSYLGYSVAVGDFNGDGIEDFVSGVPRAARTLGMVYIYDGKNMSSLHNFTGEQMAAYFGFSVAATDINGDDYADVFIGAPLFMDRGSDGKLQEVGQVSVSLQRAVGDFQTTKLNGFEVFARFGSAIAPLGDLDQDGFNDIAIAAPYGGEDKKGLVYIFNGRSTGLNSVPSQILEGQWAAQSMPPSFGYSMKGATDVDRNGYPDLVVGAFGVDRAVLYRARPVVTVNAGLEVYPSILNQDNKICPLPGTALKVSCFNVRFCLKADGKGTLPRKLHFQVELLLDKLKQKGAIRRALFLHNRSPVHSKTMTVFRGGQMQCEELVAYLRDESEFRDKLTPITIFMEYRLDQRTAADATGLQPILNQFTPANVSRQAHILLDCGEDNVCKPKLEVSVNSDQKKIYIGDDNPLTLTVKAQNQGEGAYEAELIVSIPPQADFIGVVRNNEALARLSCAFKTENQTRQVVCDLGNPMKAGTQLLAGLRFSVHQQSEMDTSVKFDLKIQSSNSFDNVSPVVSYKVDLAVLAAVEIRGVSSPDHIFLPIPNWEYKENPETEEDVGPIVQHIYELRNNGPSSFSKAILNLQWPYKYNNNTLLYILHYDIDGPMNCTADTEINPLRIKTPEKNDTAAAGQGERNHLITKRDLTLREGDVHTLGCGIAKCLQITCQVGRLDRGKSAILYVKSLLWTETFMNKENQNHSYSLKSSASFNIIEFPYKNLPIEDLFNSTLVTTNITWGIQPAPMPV
T3 sequence (O54890 26-717, chain 2 of 2, further chain): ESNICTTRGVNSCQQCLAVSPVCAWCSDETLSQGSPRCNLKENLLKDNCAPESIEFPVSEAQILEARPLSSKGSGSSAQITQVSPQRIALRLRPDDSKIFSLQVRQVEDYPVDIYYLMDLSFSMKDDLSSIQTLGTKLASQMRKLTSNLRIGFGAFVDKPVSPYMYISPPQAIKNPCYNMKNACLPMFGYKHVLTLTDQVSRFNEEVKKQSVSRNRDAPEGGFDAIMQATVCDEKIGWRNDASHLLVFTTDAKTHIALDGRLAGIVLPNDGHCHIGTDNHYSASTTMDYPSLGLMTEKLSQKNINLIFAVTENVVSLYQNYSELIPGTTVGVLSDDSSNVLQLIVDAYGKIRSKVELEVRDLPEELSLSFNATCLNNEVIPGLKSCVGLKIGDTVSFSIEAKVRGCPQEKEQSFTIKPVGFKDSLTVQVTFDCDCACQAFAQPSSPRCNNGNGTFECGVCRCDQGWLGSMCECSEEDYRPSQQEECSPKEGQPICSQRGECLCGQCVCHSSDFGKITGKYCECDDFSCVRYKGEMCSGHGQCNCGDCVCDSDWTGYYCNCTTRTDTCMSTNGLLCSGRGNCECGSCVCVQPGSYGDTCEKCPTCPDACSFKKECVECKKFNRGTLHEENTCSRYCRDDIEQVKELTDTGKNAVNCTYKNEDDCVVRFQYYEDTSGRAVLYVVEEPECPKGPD
Put plainly: SPR (Biacore/OpenSPR); αvβ3-integrin as analyte at 31.25-125 nM; 1:1 fit. The procedure: as §1

Experiment [4] deals with B1. Put plainly: SPR (Example 1); Example 1; paragraph 73 gives a separate value of 3.1×10^-7 M.
For experiment [5], the target named is B1. The experiment in a line: SPR (Biacore/OpenSPR); rmCIRP as analyte at 0.5-2 µM; 1:1 fit; Example 2, Biacore. On the procedure: as §1

What is called Kd is the free concentration of one partner at which half of the binding sites on the other are occupied at equilibrium, for simple one-to-one binding. Take B1: the Kd in experiment [1] came out at 200 nM.

B2: recombinant human CIRP (rhCIRP) (ligand, UniProt Q14011 1-172, looked up)
chain: MASDEGKLFVGGLSFDTNEQSLEQVFSKYGQISEVVVVKDRETQRSRGFGFVTFENIDDAKDAMMAMNGKSVDGRQIRVDQAGKSSDNRSRGYRGGSAGGRGFFRGGRGRGRGFSRGGGDRGYGGNRFESRSGGYGGSRDYYSSRSQSGGYSDRSSGGSYRDSYDSYATHNE
notes: The source of rhCIRP is not described in the methods
For B2, the Kd in experiment [2] is 29 nM.

B3: MFG-E8-derived oligopeptide 3 (MOP3) (peptide)
peptide: RGDSSSYKTWNLRAFGWY
notes: Synthetic 18-residue chimeric peptide: RGD followed by 15 residues of the mouse MFG-E8 discoidin domain 2
As to B3, the results for the Kd in experiment [3], in experiment [4] and in experiment [5] were 776 nM, 13 nM and 310 nM, respectively.
